Here are results for 83 variants from the RNAGym collection of RNA variant scans (doi:10.1073/pnas.2313332121).

B1: TPR 5TU (parent)
chain: GGAUCUUCUCGAUCUAACAAAAAAGACAAAUCUGCCACAAAGCUUGAGAGCAUCUUCGGAUGCAGAGGCGGCAGCCUUCGGUGGCGCGAUAGCGCCAACGUUCUCAACUAUGACACGCAAAACGCGUGCUCCGUUGAAUGGAGUUUAUCAUG

Variants at the floor of the assay were thinned out.

In this series the parent is B1. Kind of series: polymerase ribozyme fitness, log enrichment relative to wild type (log ratio); higher = more active; in vitro selection for triplet polymerase activity. In short, it runs like this: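 Mutant libraries of both subunits of a heterodimeric triplet polymerase ribozyme were PCR-built, transcribed, and selected once in triplicate, with frozen incubation at −7 °C and capture of gel-excised extended constructs on streptavidin beads before RT-PCR. Illumina sequencing of input and output libraries was filtered to genotypes with ≥10 input reads and ≥1 read per output. Fitness is the logarithm of genotype enrichment over wild-type enrichment, using inverse-variance-weighted replicate averages. The logarithm is base 2.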
Consider A21G A30G A89C, for which the “polymerase ribozyme fitness (log ratio)” value is at most -4.2.

With A22C A23G C54U, the “polymerase ribozyme fitness (log ratio)” value was at most -4.2.

As for A22C A26U U56A G59C C87G U111C, the “polymerase ribozyme fitness (log ratio)” value is at most -4.2.

As to A21G C36U A52U C116U A120U U144C, the “polymerase ribozyme fitness (log ratio)” value is -3.59.

For the variant A21U U33A A40U G58A C85G A98C A106U G126C, the “polymerase ribozyme fitness (log ratio)” value was at most -4.2.

Regarding A21U A26C A39G A40C G50A G68C C72G U111C, the “polymerase ribozyme fitness (log ratio)” value is at most -4.2.

In the case of A21G C87U G140U, the “polymerase ribozyme fitness (log ratio)” value was -3.6.

As for A21G A52U C85U G94U A98U C116U, the “polymerase ribozyme fitness (log ratio)” value is -1.64.

As for A21C G25U C96A A97G, the “polymerase ribozyme fitness (log ratio)” value is -3.82.

A22C A28U G58C A91C: the “polymerase ribozyme fitness (log ratio)” value is at most -4.2.

As to A21U C36A G86A A98C, the “polymerase ribozyme fitness (log ratio)” value is -4.1.

A21C G68C A142G: the “polymerase ribozyme fitness (log ratio)” value is -4.13.

Consider A21U G48A U82G C95G, for which the “polymerase ribozyme fitness (log ratio)” value is at most -4.2.

On to A21U A41G C95A C96A, for which the “polymerase ribozyme fitness (log ratio)” value is -0.65.

As to A21U C35A G50C A91G U134G, the “polymerase ribozyme fitness (log ratio)” value was at most -4.2.

Turning to A21C C116U, the “polymerase ribozyme fitness (log ratio)” value stood at 0.668.

Regarding A21G U33G A37U C85U C95U G141C, the “polymerase ribozyme fitness (log ratio)” value is at most -4.2.

For A21C G86A, the “polymerase ribozyme fitness (log ratio)” value is -0.32.

Consider A21G A98U C129A U144A, for which the “polymerase ribozyme fitness (log ratio)” value is -3.61.

With A21C A110C, the “polymerase ribozyme fitness (log ratio)” value is at most -4.2.

As for A21U A47U C93U, the “polymerase ribozyme fitness (log ratio)” value was -0.679.

On to A21C G141C, for which the “polymerase ribozyme fitness (log ratio)” value amounted to 1.03.

As for A22C A28G C36A U55A C87A C118G, the “polymerase ribozyme fitness (log ratio)” value is at most -4.2.

Take A21U A113C U127G C132U: the “polymerase ribozyme fitness (log ratio)” value is at most -4.2.

As to A21U G48A U55A C75U G83C A89G A98U C105U G117A U144C, the “polymerase ribozyme fitness (log ratio)” value is at most -4.2.

With A21G A49C G81A G141A, the “polymerase ribozyme fitness (log ratio)” value was at most -4.2.

On to A22C A23G A49C A66G A113U, for which the “polymerase ribozyme fitness (log ratio)” value was at most -4.2.

For the variant A21G A28G U61C, the “polymerase ribozyme fitness (log ratio)” value is at most -4.2.

For the variant A21U A22G G88A A97G A106C C125U, the “polymerase ribozyme fitness (log ratio)” value is at most -4.2.

For A21U C57U C93U C96A C116U, the “polymerase ribozyme fitness (log ratio)” value was -1.6.

Turning to A21U C87G, the “polymerase ribozyme fitness (log ratio)” value was at most -4.2.

Consider A21U C87U, for which the “polymerase ribozyme fitness (log ratio)” value was -0.254.

Regarding A21C G50A U102A, the “polymerase ribozyme fitness (log ratio)” value is -1.21.

Regarding A21U U78G, the “polymerase ribozyme fitness (log ratio)” value was at most -4.2.

Turning to A21U C96A A110G C116U U145G, the “polymerase ribozyme fitness (log ratio)” value was at most -4.2.

In the case of A21C U44A C75A C96A, the “polymerase ribozyme fitness (log ratio)” value is -3.98.

For the variant A22C A26U U33G G34A U55A A73U U77G G86A G143A, the “polymerase ribozyme fitness (log ratio)” value is at most -4.2.

A21U C35U C43U U53A A60U G83C A98G A113G: the “polymerase ribozyme fitness (log ratio)” value was at most -4.2.

Take A22C A47U C54U G86U C103A: the “polymerase ribozyme fitness (log ratio)” value is at most -4.2.

As for A22C A24G C51G A52C U56A A121C, the “polymerase ribozyme fitness (log ratio)” value was at most -4.2.

Regarding A21U A26C, the “polymerase ribozyme fitness (log ratio)” value was -1.48.

Consider A21U U33G A122U U144G, for which the “polymerase ribozyme fitness (log ratio)” value was -3.94.

Turning to A21C C35U U44A U53A U101G, the “polymerase ribozyme fitness (log ratio)” value was at most -4.2.

Take A21G G84U C118U: the “polymerase ribozyme fitness (log ratio)” value is -1.39.

Consider A21C C93U, for which the “polymerase ribozyme fitness (log ratio)” value is -1.24.

Consider A21C C93G, for which the “polymerase ribozyme fitness (log ratio)” value was -3.

Regarding A22C A24G A26U A52G G80A C85G G94U C123U, the “polymerase ribozyme fitness (log ratio)” value is at most -4.2.

Take A21C G59C C85U G100C U130A G136A U144G: the “polymerase ribozyme fitness (log ratio)” value was at most -4.2.

Turning to A21G U77G G88C U135G G143U A147C, the “polymerase ribozyme fitness (log ratio)” value is at most -4.2.

As to A21C C43U C79G G83U C87G A91G A119U G141A, the “polymerase ribozyme fitness (log ratio)” value was at most -4.2.

Take A22C A39C U55A U102G C129U: the “polymerase ribozyme fitness (log ratio)” value was at most -4.2.

As for A21C C57A G81U C85A U139G, the “polymerase ribozyme fitness (log ratio)” value is -0.214.

Regarding A21G A37U G59A A60C, the “polymerase ribozyme fitness (log ratio)” value is -3.22.

A22C A23C C36G C79A C125A G140U: the “polymerase ribozyme fitness (log ratio)” value is -3.55.

Take A21U A24C U33C G94A A107C: the “polymerase ribozyme fitness (log ratio)” value is at most -4.2.

Take A21U U78C G86C U148A: the “polymerase ribozyme fitness (log ratio)” value was at most -4.2.

On to A21G C36G A47C A120C G133A, for which the “polymerase ribozyme fitness (log ratio)” value is at most -4.2.

On to A21C G42U C69G C85U A98U A106G A120U, for which the “polymerase ribozyme fitness (log ratio)” value was at most -4.2.

On to A21G A52G U102A, for which the “polymerase ribozyme fitness (log ratio)” value is -1.09.

For the variant A21U U44A C51U C57U G65A, the “polymerase ribozyme fitness (log ratio)” value was at most -4.2.

With A21G G68A, the “polymerase ribozyme fitness (log ratio)” value was -3.89.

For A21U U55A C85U U148A, the “polymerase ribozyme fitness (log ratio)” value was -4.07.

With A21G C76A G86U C93G U101C A122G, the “polymerase ribozyme fitness (log ratio)” value is -0.0234.

For the variant A21C C51U A66G C85G, the “polymerase ribozyme fitness (log ratio)” value is at most -4.2.

As for A21U G59U C105U C129A, the “polymerase ribozyme fitness (log ratio)” value was -2.46.

Consider A21U C36G U44C C54G G74U A89G A120C U134G, for which the “polymerase ribozyme fitness (log ratio)” value is at most -4.2.

Regarding A21C C87G, the “polymerase ribozyme fitness (log ratio)” value is -3.89.

Take A21C G25C U53A: the “polymerase ribozyme fitness (log ratio)” value is -3.09.

For the variant A21C U148A, the “polymerase ribozyme fitness (log ratio)” value is -3.11.

As to A21C C85A U127A, the “polymerase ribozyme fitness (log ratio)” value was at most -4.2.

A21G G94A: the “polymerase ribozyme fitness (log ratio)” value is -1.01.

A21G U55A C96U G117A: the “polymerase ribozyme fitness (log ratio)” value came to 0.86.

Take A21C U33A G50A G62A U90C C95A: the “polymerase ribozyme fitness (log ratio)” value was at most -4.2.

For the variant A22C A115C C129G, the “polymerase ribozyme fitness (log ratio)” value was at most -4.2.

For A21U C32A C51U A73G U134G, the “polymerase ribozyme fitness (log ratio)” value was at most -4.2.

On to A21G A60G G68U C93G C95G U139C, for which the “polymerase ribozyme fitness (log ratio)” value is at most -4.2.

On to A21U A22U U53G, for which the “polymerase ribozyme fitness (log ratio)” value is -0.816.

A21G C85U C96U C105U A106C A138G: the “polymerase ribozyme fitness (log ratio)” value was at most -4.2.

For A21U U31C A73G G94U A113U, the “polymerase ribozyme fitness (log ratio)” value is -3.49.

For the variant A21C C36G A41C C72U A73U U78G C96U C118U G128A A142U, the “polymerase ribozyme fitness (log ratio)” value was at most -4.2.

As for A21U C99U C116U C125U, the “polymerase ribozyme fitness (log ratio)” value was -1.64.

A21G C38U A60G C85U: the “polymerase ribozyme fitness (log ratio)” value was 1.

As for A21U A60U C103G C108U A142G U148C, the “polymerase ribozyme fitness (log ratio)” value was at most -4.2.
